Read-outs that look alike come from different tables or passages of the source.
Columns and labels:
[1] = test system: HL-60(TB); assay type: cell-based
[2] = test system: HOP-92; assay type: cell-based; details: HOP-92, one dose
[3] = test system: NCI-H23; assay type: cell-based
[4] = test system: NCI-H226; assay type: cell-based
[5] = test system: OVCAR-4; assay: NCI60 in vitro screening, Ovarian Cancer; assay type: cell-based
[6] = test system: MDA-MB-435; assay: NCI60 in vitro screening, Melanoma; assay type: cell-based
[7] = test system: A549; assay: MTT assay, drug sensitivity; assay type: cell-based, human; details: A549, 48 h, MTT
Procedure: (§1) A549 cell line and resistant A549 cell sublines (A549/D16, A549/D32 and A549/V16) (5000 cells/well of 96-well plate) were treated with increased doses concentrations (μM) of GMI from Ganoderma microsporum, docetaxel, vincristine and doxorubicin for 48 h, respectively. Cell viability was measured by MTT assay and the results are presented as the calculated cell growth inhibitory ratio. Experiments were repeated three times.

[8] = test system: A549/V16; assay: MTT assay, drug sensitivity; assay type: cell-based, human; details: A549/V16, 48 h, MTT
Procedure: as §1

[9] = test system: A549/D16; assay: MTT assay, drug sensitivity; assay type: cell-based, human; details: A549/D16, 48 h, MTT
Procedure: as §1

[10] = test system: SF-295; assay: NCI60 in vitro screening, CNS Cancer; assay type: cell-based
[11] = test system: NCI/ADR-RES; assay: NCI60 in vitro screening, Ovarian Cancer; assay type: cell-based
[12] = test system: MALME-3M; assay: NCI60 in vitro screening, Melanoma; assay type: cell-based

B1: GMI: immunomodulatory protein from Ganoderma microsporum, amino acid sequence SEQ ID NO: 3, manufactured by Mycomagic Biotechnology Co., Ltd. (protein, listed as Ganoderma microsporum)
chain: MSDTALIFTLAWNVKQLAFDYTPNWGRGRPSSFIDTVTFPTVLTDKAYTYRVVVSGKDLGVRPSYAVESDGSQKINFLEYNSGYGIADTNTIQVYVIDPDTGNNFIVAQWN
[1]; Log10 Concentration −0.9
  Percent Growth: 99%
[1]; Log10 Concentration −1.9
  Percent Growth: 100%
[1]; one dose
  Growth Percent: 116.48%
[2]
  Growth Percent: 22.29%
[3]; NCI-H23
  TGI: >1.25E2
[3]; NCI-H23, Log10 Concentration 0.1
  Percent Growth: 106%
[3]; NCI-H23, Log10 Concentration 1.1
  Percent Growth: 89%
[3]; NCI-H23, Log10 Concentration 2.1
  Percent Growth: 66%
[3]; NCI-H23, Log10 Concentration −0.9
  Percent Growth: 101%
[3]; NCI-H23, Log10 Concentration −1.9
  Percent Growth: 99%
[3]; NCI-H23, one dose
  Growth Percent: 91.82%
[4]; NCI-H226
  TGI: >1.25E2
[4]; NCI-H226, Log10 Concentration 0.1
  Percent Growth: 101%
[4]; NCI-H226, Log10 Concentration 1.1
  Percent Growth: 65%
[4]; NCI-H226, Log10 Concentration 2.1
  Percent Growth: 23%
[4]; NCI-H226, Log10 Concentration −0.9
  Percent Growth: 99%
[4]; NCI-H226, Log10 Concentration −1.9
  Percent Growth: 100%
[4]; NCI-H226, one dose
  Growth Percent: 83.77%
[4]; NCI-H226, in µg/mL
  GI50: 2.90E1
[5]; OVCAR-4
  TGI: >1.25E2
[5]; OVCAR-4, Log10 Concentration 0.1
  Percent Growth: 102%
[5]; OVCAR-4, Log10 Concentration 1.1
  Percent Growth: 107%
[5]; OVCAR-4, Log10 Concentration 2.1
  Percent Growth: 62%
[5]; OVCAR-4, Log10 Concentration −0.9
  Percent Growth: 102%
[5]; OVCAR-4, Log10 Concentration −1.9
  Percent Growth: 103%
[5]; OVCAR-4, one dose
  Growth Percent: 98.08%
[6]; MDA-MB-435
  TGI: >1.25E2
[6]; MDA-MB-435, Log10 Concentration 0.1
  Percent Growth: 91%
[6]; MDA-MB-435, Log10 Concentration 1.1
  Percent Growth: 85%
[6]; MDA-MB-435, Log10 Concentration 2.1
  Percent Growth: 3%
[6]; MDA-MB-435, Log10 Concentration −0.9
  Percent Growth: 96%
[6]; MDA-MB-435, Log10 Concentration −1.9
  Percent Growth: 101%
[6]; MDA-MB-435, one dose
  Growth Percent: 79.29%
[6]; MDA-MB-435, in µg/mL
  GI50: 3.34E1
[7]
  IC50 ± SD: 15.73 ± 0.42 µg/mL
[8]
  IC50 ± SD: 13.10 ± 0.17 µg/mL
[9]
  IC50 ± SD: 11.37 ± 0.55 µg/mL
[10]; SF-295
  TGI: >1.25E2
[10]; SF-295, Log10 Concentration 0.1
  Percent Growth: 101%
[10]; SF-295, Log10 Concentration 1.1
  Percent Growth: 93%
[10]; SF-295, Log10 Concentration 2.1
  Percent Growth: 22%
[10]; SF-295, Log10 Concentration −0.9
  Percent Growth: 100%
[10]; SF-295, Log10 Concentration −1.9
  Percent Growth: 103%
[10]; SF-295, one dose
  Growth Percent: 70.58%
[10]; SF-295, in µg/mL
  GI50: 5.07E1
[11]
  TGI: >1.25E2
[11]; Log10 Concentration 0.1
  Percent Growth: 105%
[11]; Log10 Concentration 1.1
  Percent Growth: 81%
[11]; Log10 Concentration 2.1
  Percent Growth: 19%
[11]; Log10 Concentration −0.9
  Percent Growth: 100%
[11]; Log10 Concentration −1.9
  Percent Growth: 102%
[11]; in µg/mL
  GI50: 3.94E1
[12]
  TGI: >1.25E2
[12]; Log10 Concentration 0.1
  Percent Growth: 118%
[12]; Log10 Concentration 1.1
  Percent Growth: 114%
[12]; Log10 Concentration 2.1
  Percent Growth: 74%
[12]; Log10 Concentration −0.9
  Percent Growth: 102%
[12]; Log10 Concentration −1.9
  Percent Growth: 100%
[12]; one dose
  Growth Percent: 114.17%

Reference: US9018171B2, “Uses of an immunomodulatory protein (GMI) from Ganoderma microsporum” (Mycomagic Biotechnology Co., Ltd., priority 2010, dated 2015)
